Columns and labels:
[1] = target: Cas7 (V. cholerae Type I-F variant CRISPR-Cas system) (V. cholerae); test: cryo-EM structure
[2] = target: TniQ (transposition protein of the Vibrio cholerae Tn6677 transposon) (V. cholerae); test: cryo-EM structure

Substance	stoichiometry N [1]	stoichiometry N [2]
Cas7 (V. cholerae Type I-F variant CRISPR-Cas system) (natural protein)	6	–
TniQ (transposition protein of the Vibrio cholerae Tn6677 transposon) (natural protein)	–	2

Reference: publication doi:10.1101/706143
